# Measured values published in paper PMC13083842 (2026).
# T1: soluble IL-6 receptor (sIL-6R) (human (from the printed accession …, UniProt P08887 20-355))
# T1 chain: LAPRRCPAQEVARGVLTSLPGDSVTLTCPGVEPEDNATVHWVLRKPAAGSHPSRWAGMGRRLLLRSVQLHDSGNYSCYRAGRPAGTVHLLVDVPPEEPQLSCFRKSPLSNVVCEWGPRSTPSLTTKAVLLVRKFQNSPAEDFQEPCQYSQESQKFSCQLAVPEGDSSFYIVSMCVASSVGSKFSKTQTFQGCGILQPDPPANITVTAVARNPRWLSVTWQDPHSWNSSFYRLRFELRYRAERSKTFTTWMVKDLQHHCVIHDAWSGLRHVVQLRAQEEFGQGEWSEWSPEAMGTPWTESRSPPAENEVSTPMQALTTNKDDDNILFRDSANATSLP
# Molecular target: T2, interleukin-6 (IL-6) (human, UniProt P05231 30-212)
# T2 sequence (P05231 30-212): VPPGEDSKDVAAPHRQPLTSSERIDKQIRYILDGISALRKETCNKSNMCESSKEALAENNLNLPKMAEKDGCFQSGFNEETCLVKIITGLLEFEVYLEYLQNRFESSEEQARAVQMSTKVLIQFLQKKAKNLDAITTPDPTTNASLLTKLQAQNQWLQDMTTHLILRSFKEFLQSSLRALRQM
# Assay: SPR
row,Kd,Binder
1,< 0.019 nM,"siltuximab-TGN 1:1 (antibody, V domains shown, Tris-GalNAc-PEG5 (TGN) on accessible primary amines (lysines), not site-specific; coupling ratio 1:1; GPR = 0.2 for the antibody | Tris-GalNAc-PEG5 (TGN) on accessible primary amines (lysines), not site-specific; coupling ratio 1:1; GPR = 0.2 for the antibody) VH: EVQLVESGGKLLKPGGSLKLSCAASGFTFSSFAMSWFRQSPEKRLEWVAEISSGGSYTYYPDTVTGRFTISRDNAKNTLYLEMSSLRSEDTAMYYCARGLWGYYALDYWGQGTSVTVSS VL: QIVLIQSPAIMSASPGEKVTMTCSASSSVSYMYWYQQKPGSSPRLLIYDTSNLASGVPVRFSGSGSGTSYSLTISRMEAEDAATYYCQQWSGYPYTFGGGTKLEIK"
2,< 0.022 nM,"siltuximab (antibody, V domains shown) VH: EVQLVESGGKLLKPGGSLKLSCAASGFTFSSFAMSWFRQSPEKRLEWVAEISSGGSYTYYPDTVTGRFTISRDNAKNTLYLEMSSLRSEDTAMYYCARGLWGYYALDYWGQGTSVTVSS VL: QIVLIQSPAIMSASPGEKVTMTCSASSSVSYMYWYQQKPGSSPRLLIYDTSNLASGVPVRFSGSGSGTSYSLTISRMEAEDAATYYCQQWSGYPYTFGGGTKLEIK"
3,< 0.036 nM,"siltuximab-TGN 1:10 (antibody, V domains shown, Tris-GalNAc-PEG5 (TGN) on accessible primary amines (lysines), not site-specific; coupling ratio 1:10 | Tris-GalNAc-PEG5 (TGN) on accessible primary amines (lysines), not site-specific; coupling ratio 1:10) VH: EVQLVESGGKLLKPGGSLKLSCAASGFTFSSFAMSWFRQSPEKRLEWVAEISSGGSYTYYPDTVTGRFTISRDNAKNTLYLEMSSLRSEDTAMYYCARGLWGYYALDYWGQGTSVTVSS VL: QIVLIQSPAIMSASPGEKVTMTCSASSSVSYMYWYQQKPGSSPRLLIYDTSNLASGVPVRFSGSGSGTSYSLTISRMEAEDAATYYCQQWSGYPYTFGGGTKLEIK"
4,< 0.027 nM,"siltuximab-TGN 1:5 (antibody, V domains shown, Tris-GalNAc-PEG5 (TGN) on accessible primary amines (lysines), not site-specific; coupling ratio 1:5 | Tris-GalNAc-PEG5 (TGN) on accessible primary amines (lysines), not site-specific; coupling ratio 1:5) VH: EVQLVESGGKLLKPGGSLKLSCAASGFTFSSFAMSWFRQSPEKRLEWVAEISSGGSYTYYPDTVTGRFTISRDNAKNTLYLEMSSLRSEDTAMYYCARGLWGYYALDYWGQGTSVTVSS VL: QIVLIQSPAIMSASPGEKVTMTCSASSSVSYMYWYQQKPGSSPRLLIYDTSNLASGVPVRFSGSGSGTSYSLTISRMEAEDAATYYCQQWSGYPYTFGGGTKLEIK"

# Molecular target: T1, soluble IL-6 receptor (sIL-6R)
# Assay: SPR
row,Kd,Binder
1,0.212 nM,"tocilizumab-TGN 1:10 (antibody, V domains shown, Tris-GalNAc-PEG5 (TGN) on accessible primary amines (lysines), not site-specific; coupling ratio 1:10; GPR 4.75 for the antibody | Tris-GalNAc-PEG5 (TGN) on accessible primary amines (lysines), not site-specific; coupling ratio 1:10; GPR 4.75 for the antibody) VH: QVQLQESGPGLVRPSQTLSLTCTVSGYSITSDHAWSWVRQPPGRGLEWIGYISYSGITTYNPSLKSRVTMLRDTSKNQFSLRLSSVTAADTAVYYCARSLARTTAMDYWGQGSLVTVSS VL: DIQMTQSPSSLSASVGDRVTITCRASQDISSYLNWYQQKPGKAPKLLIYYTSRLHSGVPSRFSGSGSGTDFTFTISSLQPEDIATYYCQQGNTLPYTFGQGTKVEIK"
2,0.093 nM,"tocilizumab-TGN 1:5 (antibody, V domains shown, Tris-GalNAc-PEG5 (TGN) on accessible primary amines (lysines), not site-specific; coupling ratio 1:5; GPR 2.51 for the antibody | Tris-GalNAc-PEG5 (TGN) on accessible primary amines (lysines), not site-specific; coupling ratio 1:5; GPR 2.51 for the antibody) VH: QVQLQESGPGLVRPSQTLSLTCTVSGYSITSDHAWSWVRQPPGRGLEWIGYISYSGITTYNPSLKSRVTMLRDTSKNQFSLRLSSVTAADTAVYYCARSLARTTAMDYWGQGSLVTVSS VL: DIQMTQSPSSLSASVGDRVTITCRASQDISSYLNWYQQKPGKAPKLLIYYTSRLHSGVPSRFSGSGSGTDFTFTISSLQPEDIATYYCQQGNTLPYTFGQGTKVEIK"
3,0.068 nM,"tocilizumab (antibody, V domains shown) VH: QVQLQESGPGLVRPSQTLSLTCTVSGYSITSDHAWSWVRQPPGRGLEWIGYISYSGITTYNPSLKSRVTMLRDTSKNQFSLRLSSVTAADTAVYYCARSLARTTAMDYWGQGSLVTVSS VL: DIQMTQSPSSLSASVGDRVTITCRASQDISSYLNWYQQKPGKAPKLLIYYTSRLHSGVPSRFSGSGSGTDFTFTISSLQPEDIATYYCQQGNTLPYTFGQGTKVEIK"
4,0.328 nM,"tocilizumab-TGN 1:25 (antibody, V domains shown, Tris-GalNAc-PEG5 (TGN) on accessible primary amines (lysines), not site-specific; coupling ratio 1:25; GPR of 15.36 for the antibody | Tris-GalNAc-PEG5 (TGN) on accessible primary amines (lysines), not site-specific; coupling ratio 1:25; GPR of 15.36 for the antibody) VH: QVQLQESGPGLVRPSQTLSLTCTVSGYSITSDHAWSWVRQPPGRGLEWIGYISYSGITTYNPSLKSRVTMLRDTSKNQFSLRLSSVTAADTAVYYCARSLARTTAMDYWGQGSLVTVSS VL: DIQMTQSPSSLSASVGDRVTITCRASQDISSYLNWYQQKPGKAPKLLIYYTSRLHSGVPSRFSGSGSGTDFTFTISSLQPEDIATYYCQQGNTLPYTFGQGTKVEIK"
5,< 0.038 nM,"tocilizumab-TGN 1:1 (antibody, V domains shown, Tris-GalNAc-PEG5 (TGN) on accessible primary amines (lysines), not site-specific; coupling ratio 1:1; GPR = 0.35 for the antibody | Tris-GalNAc-PEG5 (TGN) on accessible primary amines (lysines), not site-specific; coupling ratio 1:1; GPR = 0.35 for the antibody) VH: QVQLQESGPGLVRPSQTLSLTCTVSGYSITSDHAWSWVRQPPGRGLEWIGYISYSGITTYNPSLKSRVTMLRDTSKNQFSLRLSSVTAADTAVYYCARSLARTTAMDYWGQGSLVTVSS VL: DIQMTQSPSSLSASVGDRVTITCRASQDISSYLNWYQQKPGKAPKLLIYYTSRLHSGVPSRFSGSGSGTDFTFTISSLQPEDIATYYCQQGNTLPYTFGQGTKVEIK"

# Molecular target: T2, interleukin-6 (IL-6)
# Assay: SPR
# Remark: another data set of the same source
row,Kd,Binder
1,166 nM,"sIL-6R-TGN 1:1 (receptor, Tris-GalNAc-PEG5 (TGN) on accessible primary amines (lysines), not site-specific; coupling ratio 1:1; GPR could not be determined) LAPRRCPAQEVARGVLTSLPGDSVTLTCPGVEPEDNATVHWVLRKPAAGSHPSRWAGMGRRLLLRSVQLHDSGNYSCYRAGRPAGTVHLLVDVPPEEPQLSCFRKSPLSNVVCEWGPRSTPSLTTKAVLLVRKFQNSPAEDFQEPCQYSQESQKFSCQLAVPEGDSSFYIVSMCVASSVGSKFSKTQTFQGCGILQPDPPANITVTAVARNPRWLSVTWQDPHSWNSSFYRLRFELRYRAERSKTFTTWMVKDLQHHCVIHDAWSGLRHVVQLRAQEEFGQGEWSEWSPEAMGTPWTESRSPPAENEVSTPMQALTTNKDDDNILFRDSANATSLP"
2,428 nM,"sIL-6R-TGN 1:10 (receptor, Tris-GalNAc-PEG5 (TGN) on accessible primary amines (lysines), not site-specific; coupling ratio 1:10; GPR could not be determined) LAPRRCPAQEVARGVLTSLPGDSVTLTCPGVEPEDNATVHWVLRKPAAGSHPSRWAGMGRRLLLRSVQLHDSGNYSCYRAGRPAGTVHLLVDVPPEEPQLSCFRKSPLSNVVCEWGPRSTPSLTTKAVLLVRKFQNSPAEDFQEPCQYSQESQKFSCQLAVPEGDSSFYIVSMCVASSVGSKFSKTQTFQGCGILQPDPPANITVTAVARNPRWLSVTWQDPHSWNSSFYRLRFELRYRAERSKTFTTWMVKDLQHHCVIHDAWSGLRHVVQLRAQEEFGQGEWSEWSPEAMGTPWTESRSPPAENEVSTPMQALTTNKDDDNILFRDSANATSLP"
3,230 nM,"sIL-6R-TGN 1:5 (receptor, Tris-GalNAc-PEG5 (TGN) on accessible primary amines (lysines), not site-specific; coupling ratio 1:5; GPR could not be determined) LAPRRCPAQEVARGVLTSLPGDSVTLTCPGVEPEDNATVHWVLRKPAAGSHPSRWAGMGRRLLLRSVQLHDSGNYSCYRAGRPAGTVHLLVDVPPEEPQLSCFRKSPLSNVVCEWGPRSTPSLTTKAVLLVRKFQNSPAEDFQEPCQYSQESQKFSCQLAVPEGDSSFYIVSMCVASSVGSKFSKTQTFQGCGILQPDPPANITVTAVARNPRWLSVTWQDPHSWNSSFYRLRFELRYRAERSKTFTTWMVKDLQHHCVIHDAWSGLRHVVQLRAQEEFGQGEWSEWSPEAMGTPWTESRSPPAENEVSTPMQALTTNKDDDNILFRDSANATSLP"
